According to the supplement of paper PMC10567573:

B1: TRIM14 (parent)
chain: REQADSCREQLDIMNDLSNRVWSI
B2: KCNA4 (parent)
chain: YQSGGRLKRPVNVPFDIFTEEVKF

Variants of: B1
Test: protein stability index of a GFP-peptide fusion (GPS, HEK-293T) (PSI 1-6); higher = more stable
Details: c terminus: a fixed tail appended
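Also: lentivirally expressed fusions sorted by FACS into six bins by GFP to DsRed ratio, PSI derived from sequencing read proportions per bin multiplied by bin number.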

Protein stability index: each site, then its substitutions
D5: P 2.03, S 1.6, A 1.95, V 2.09, C 1.59, M 2.1, N 2.88, T 1.99, F 1.55, K 3.1, G 1.55, I 2.84, W 2.21, L 3.46, Y 1.2, H 2.23, E 2.15, Q 2.14, R 3.62
S6: Q 2.21, T 1.6, E 2.77, Y 2.06, P 2.35, K 1.78, W 2, V 1.85, D 3.4, M 1.93, R 1.86, L 1.93, G 2.42, I 2.35, H 2.41, A 2.45, C 2.01, N 2.68, F 1.91
E9: C 1.84, A 2.03
E2: S 1.28, V 1.98, A 1.93, Q 1.63, N 2.46, W 1.91, Y 2.83, F 2.92, T 2.13, L 1.25, P 2.33, G 1.85, K 1.83, D 2.45, H 1.53, M 2.56, I 1.75, R 1.66, C 1.95
Q3: S 1.77, R 2.42, W 1.88, G 1.82, L 1.68, P 2.15, I 2.04, T 2.11, C 2.08, N 2.13, H 1.87, E 3.01, M 1.75, D 2.8, A 2.48, Y 2.23, K 1.59, F 1.82, V 1.24
C7: N 3.52, H 3.02, L 2.27, V 2.76, M 2.52, Y 2.2, E 3.96, K 3, Q 4.24, R 3.42, S 3.21, P 2.74, F 2.21, A 2.86, G 3.05, W 2.23, I 2.12, T 3.04, D 3.5
R8: G 2.68, D 3.4, S 2.41, Y 1.54, V 1.8, I 1.79, A 2.47, C 2.3, F 1.6, L 1.89, T 2.44, K 2.29, E 3.19, N 2.51, Q 2.64, W 2.53, H 2.61, M 2.17, P 3.02
A4: F 1.59, H 2, L 2.57, K 2.52, R 2.31, I 2.29, E 2.52, D 2.5, Y 2.21, V 2.36, T 2.93, M 3.03, W 2.34, P 1.76, C 1.81, S 2.27, N 2.66, Q 2.25, G 2.59
R1: V 2.96, M 2.19, I 2.63, Q 2.58, H 2.29, G 1.86, N 2.56, D 2.64, L 2.32, Y 2.11, E 3.17, P 2.48, W 2.82, C 2.15, F 1.88, S 3.43, T 2.75, A 2.81, K 1.72

Variants of: B2
Test: as above
Details: c terminus: a fixed tail appended

Protein stability index of substitutions, site by site:
F18: C 1.57, A 2.28, V 1.67, D 2.01, M 2.02, P 2.44, S 2.43, H 2.15, Q 2.65, L 2.5, I 1.97, G 2.29, K 1.84, T 2.26, E 1.81, R 1.93, N 2.1
V22: A 1.58, Q 2.08, Y 2.25, L 1.99, C 1.54, D 2.09, H 1.86, G 2.34, F 2.06, K 1.59, T 1.96, I 1.38, S 2, E 2.77, P 1.54, R 1.48, N 1.83
D16: R 2.48, H 1.08, W 2.98, S 1.21, V 1.55, N 2.03, L 1.85, M 1.54, Y 2.11, P 1.52, T 1.29, A 1.83, E 2.08, C 1.1, K 1.57
F15: T 2.22, Y 1.56, H 2.47, M 3, N 1.88, E 2.75, I 2.45, W 2.12, C 2.41, P 2.01, D 2.6, S 1.94, K 2.1, R 2.83, G 1.98, L 2.15
I17: C 3.62, W 2.99, F 2.25, E 2.15, P 1.85, Q 1.72, L 2.36, D 2.83, T 2.89, A 1.64, M 1.91, K 2.04, G 1.91, Y 1.99, V 1.28, H 1.98
F24: H 2.16, Y 2.89, M 1.63, P 2.25, Q 2.92, T 2.18, A 1.78, R 2.59, C 1.93, N 1.93, I 1.71, L 2.05, E 2.32, S 2.79, D 2.11, K 2.49, G 2.26, V 2.49, W 1.92
E20: C 2.11, P 2.11, T 1.53, R 1.31, S 1.92, D 2.57, I 1.47, K 1.7, N 2.12, Q 1.44, H 1.43, G 1.57
E21: F 1.55, G 2.36, C 1.7, T 1.81, Y 2.61, I 2.24, V 1.81, K 1.17, D 2.37, N 2.63, P 2.13, A 1.89, H 1.77, S 1.24, M 1.06
V13: Y 1.88, R 2.25, T 1.51, Q 1.66, P 1.53
K23: I 2.65, P 1.44, F 2.99, C 2.33, A 1.35, T 2.36, N 2.3, Q 2.06, R 1.96, V 2.42, Y 1.52, M 2.17, H 1.71, E 1.05, D 1.82, L 2.53
P14: D 2.28, V 1.56, S 1.9, T 1.51, C 2.19, N 2.07, I 3, Q 3.33, R 2.19, L 1.91, K 1.71, Y 2.7, G 2.98, E 1.42, H 1.86, A 1.37
T19: V 1.96, Y 2.16, H 2.83, Q 1.42, K 2.66, D 2.38, G 1.94, W 1.41, S 2.09, R 1.2, I 1.72, C 1.46, P 1.53, F 2.1, N 2.33, E 1.92
